# Source: patent publication US20170233497A1 (Genmab, published 2017)
# Assays:
# [1] = target: the molecule itself; experiment: native mass spectrometry; KD compared to the wild type IgG1 CH2-CH3 fragment
# Method: (§1) To measure the effect of the above mentioned CH3 mutations on the strength of the CH3-CH3 interaction, fragments composed of only the CH2-CH3 domains were made. The lack of a hinge region in these fragments prevented covalent inter-heavy chain disulfide bonds. The fragments were analyzed by native mass spectrometry. Samples were buffer-exchanged to 100 mM ammonium acetate pH 7, using 10 kDa MWCO spin-filter columns. Aliquots (˜1 μL) of serial diluted samples (20 μM-25 nM; monomer equivalent) were loaded into gold-plated borosilicate capillaries for analysis on a LCT mass spectrometer (Waters). The monomer signal, Mₛ, was defined as the area of the monomer peaks as a fraction of the area of all peaks in the spectrum (Mₛ/(Mₛ+Dₛ) where Dₛ=the dimer signal). The concentration of monomer at equilibrium, [M]eq, was defined as Mₛ·[M]₀ where [M]₀ is the overall protein concentration in terms of monomer. The dimer concentration at equilibrium, [D]eq, was defined as ([M]₀−[M]eq)/2. The KD, was then extracted from the gradient of a plot of [D]eq versus [M]eq².
# [2] = target: the molecule itself; experiment: native mass spectrometry; monomer-dimer equilibrium of the hinge-less CH2-CH3 fragment (homodimer)
# Method: as §1
# [3] = target: the molecule itself; experiment: native mass spectrometry; CH2-CH3 fragment homodimer
# Method: as §1, with “The” for “To measure the effect of the above mentioned CH3 mutations on the strength of the CH3-CH3 interaction, fragments composed of only the CH2-CH3 domains were made. The lack of a hinge region in these fragments prevented covalent inter-heavy chain disulfide bonds. The”
# It is described in Example 21 that there is a specific range in the strength of the interaction of the CH3-CH3 homodimers that allows efficient Fab-arm-exchange. The strength of the interactions at the CH3 interface should be such that it is possible that both heavy chains in the parental antibodies (homodimers) dissociate in the Fab-arm-exchange reaction and that they subsequently associate in the heterodimerization reaction. To generate a stable heterodimer, the strength of the heterodimer interaction should be greater than the strength of the homodimer interaction, such that it favors heterodimerization over homodimerization. To confirm this, the strength of the CH3-CH3 interaction in the heterodimers was measured and compared to the strength in the homodimers. The KD of the CH2-CH3 fragments derived from IgG1-K409R, IgG1-F405L and IgG1-ITL homodimers were measured as described in Example 21. For the determination of the KD in heterodimers, CH2-CH3 domain fragments (G1-F405L and G1-ITL) were mixed with the IgG1Δhinge fragment of IgG1-7D8-K409R, which contain all antibody domains except the hinge. […] The fragments were mixed and analyzed after 24 hours by native mass spectrometry as described in Example 21. […]
# [4] = target: the molecule itself; experiment: native mass spectrometry; KD compared to the wild type IgG4 CH2-CH3 fragment
# Method: as §1
protein,measurement,setting,value
"CH2-CH3 fragment of human IgG1 with K409R (other, UniProt P01857-1 224-330, looked up, name in EU numbering, range 341-447; As m1, with the mutation; also called G1-K409R; not shown: N-terminal 6 amino acid His tag) GQPREPQVYTLPPSRDELTKNQVSLTCLVKGFYPSDIAVEWESNGQPENNYKTTPPVLDSDGSFFLYSRLTVDKSRWQQGNVFSCSVMHEALHNHYTQKSLSLSPGK",fold-difference,[1],0.03 fold
same,Kd,[2],110 nM
same,Kd,[3],110 nM
"CH2-CH3 fragment of human IgG4 with R409T (other, UniProt P01861-1 221-327, looked up, name in EU numbering, range 341-447; As m7, with the mutation; also called G4-R409T; not shown: N-terminal 6 amino acid His tag) GQPREPQVYTLPPSQEEMTKNQVSLTCLVKGFYPSDIAVEWESNGQPENNYKTTPPVLDSDGSFFLYSTLTVDKSRWQEGNVFSCSVMHEALHNHYTQKSLSLSLGK",fold-difference,[4],0.07 fold
same,Kd,[2],720 nM
"CH2-CH3 fragment of human IgG4 with R409L (other, UniProt P01861-1 221-327, looked up, name in EU numbering, range 341-447; As m7, with the mutation; also called G4-R409L; not shown: N-terminal 6 amino acid His tag) GQPREPQVYTLPPSQEEMTKNQVSLTCLVKGFYPSDIAVEWESNGQPENNYKTTPPVLDSDGSFFLYSLLTVDKSRWQEGNVFSCSVMHEALHNHYTQKSLSLSLGK",fold-difference,[4],3.2 fold
same,Kd,[2],15 nM
"CH2-CH3 fragment of wild type human IgG4 (other, UniProt P01861-1 221-327, looked up, range 341-447; His-tagged fragment without hinge; the KD is its non-covalent self-association (CH3-CH3 homodimer); not shown: N-terminal 6 amino acid His tag) GQPREPQVYTLPPSQEEMTKNQVSLTCLVKGFYPSDIAVEWESNGQPENNYKTTPPVLDSDGSFFLYSRLTVDKSRWQEGNVFSCSVMHEALHNHYTQKSLSLSLGK",fold-difference,[4],1 fold
same,Kd,[2],48 nM
"CH2-CH3 fragment of human IgG4 with K370E (other, UniProt P01861-1 221-327, looked up, name in EU numbering, range 341-447; As m7, with the mutation; also called G4-K370E; not shown: N-terminal 6 amino acid His tag) GQPREPQVYTLPPSQEEMTKNQVSLTCLVEGFYPSDIAVEWESNGQPENNYKTTPPVLDSDGSFFLYSRLTVDKSRWQEGNVFSCSVMHEALHNHYTQKSLSLSLGK",fold-difference,[4],24 fold
same,Kd,[2],2 nM
"CH2-CH3 fragment of human IgG1 with K370T (other, UniProt P01857-1 224-330, looked up, name in EU numbering, range 341-447; As m1, with the mutation; also called G1-K370T; not shown: N-terminal 6 amino acid His tag) GQPREPQVYTLPPSRDELTKNQVSLTCLVTGFYPSDIAVEWESNGQPENNYKTTPPVLDSDGSFFLYSKLTVDKSRWQQGNVFSCSVMHEALHNHYTQKSLSLSPGK",fold-difference,[1],0.07 fold
same,Kd,[2],45 nM
"CH2-CH3 fragment of human IgG4 with R409W (other, UniProt P01861-1 221-327, looked up, name in EU numbering, range 341-447; As m7, with the mutation; also called G4-R409W; not shown: N-terminal 6 amino acid His tag) GQPREPQVYTLPPSQEEMTKNQVSLTCLVKGFYPSDIAVEWESNGQPENNYKTTPPVLDSDGSFFLYSWLTVDKSRWQEGNVFSCSVMHEALHNHYTQKSLSLSLGK",fold-difference,[4],0.0014 fold
same,Kd,[2],34000 nM
"CH2-CH3 fragment of human IgG4 with E357T (other, UniProt P01861-1 221-327, looked up, name in EU numbering, range 341-447; As m7, with the mutation; also called G4-E357T; not shown: N-terminal 6 amino acid His tag) GQPREPQVYTLPPSQETMTKNQVSLTCLVKGFYPSDIAVEWESNGQPENNYKTTPPVLDSDGSFFLYSRLTVDKSRWQEGNVFSCSVMHEALHNHYTQKSLSLSLGK",fold-difference,[4],0.0012 fold
same,Kd,[2],41000 nM
"CH2-CH3 fragment of human IgG4 with R409K (other, UniProt P01861-1 221-327, looked up, name in EU numbering, range 341-447; As m7, with the mutation; also called G4-R409K; not shown: N-terminal 6 amino acid His tag) GQPREPQVYTLPPSQEEMTKNQVSLTCLVKGFYPSDIAVEWESNGQPENNYKTTPPVLDSDGSFFLYSKLTVDKSRWQEGNVFSCSVMHEALHNHYTQKSLSLSLGK",fold-difference,[4],6 fold
same,Kd,[2],8 nM
"CH2-CH3 fragment of human IgG4 with L351K (other, UniProt P01861-1 221-327, looked up, name in EU numbering, range 341-447; As m7, with the mutation; also called G4-L351K; not shown: N-terminal 6 amino acid His tag) GQPREPQVYTKPPSQEEMTKNQVSLTCLVKGFYPSDIAVEWESNGQPENNYKTTPPVLDSDGSFFLYSRLTVDKSRWQEGNVFSCSVMHEALHNHYTQKSLSLSLGK",fold-difference,[4],0.06 fold
same,Kd,[2],740 nM
"CH2-CH3 fragment of human IgG4 with S364D (other, UniProt P01861-1 221-327, looked up, name in EU numbering, range 341-447; As m7, with the mutation; also called G4-S364D; not shown: N-terminal 6 amino acid His tag) GQPREPQVYTLPPSQEEMTKNQVDLTCLVKGFYPSDIAVEWESNGQPENNYKTTPPVLDSDGSFFLYSRLTVDKSRWQEGNVFSCSVMHEALHNHYTQKSLSLSLGK",fold-difference,[4],1.02 fold
same,Kd,[2],47 nM
"CH2-CH3 fragment of human IgG4 with R409M (other, UniProt P01861-1 221-327, looked up, name in EU numbering, range 341-447; As m7, with the mutation; also called G4-R409M; not shown: N-terminal 6 amino acid His tag) GQPREPQVYTLPPSQEEMTKNQVSLTCLVKGFYPSDIAVEWESNGQPENNYKTTPPVLDSDGSFFLYSMLTVDKSRWQEGNVFSCSVMHEALHNHYTQKSLSLSLGK",fold-difference,[4],16 fold
same,Kd,[2],3 nM
"CH2-CH3 fragment of human IgG4 with R409A (other, UniProt P01861-1 221-327, looked up, name in EU numbering, range 341-447; As m7, with the mutation; also called G4-R409A; not shown: N-terminal 6 amino acid His tag) GQPREPQVYTLPPSQEEMTKNQVSLTCLVKGFYPSDIAVEWESNGQPENNYKTTPPVLDSDGSFFLYSALTVDKSRWQEGNVFSCSVMHEALHNHYTQKSLSLSLGK",fold-difference,[4],0.3 fold
same,Kd,[2],160 nM
"CH2-CH3 fragment of human IgG1 with F405L (other, UniProt P01857-1 224-330, looked up, name in EU numbering, range 341-447; As m1, with the mutation; also called G1-F405L; not shown: N-terminal 6 amino acid His tag) GQPREPQVYTLPPSRDELTKNQVSLTCLVKGFYPSDIAVEWESNGQPENNYKTTPPVLDSDGSFLLYSKLTVDKSRWQQGNVFSCSVMHEALHNHYTQKSLSLSPGK",Kd,[3],850 nM
"CH2-CH3 fragment of human IgG4 with F405L (other, UniProt P01861-1 221-327, looked up, name in EU numbering, range 341-447; As m7, with the mutation; also called G4-F405L; not shown: N-terminal 6 amino acid His tag) GQPREPQVYTLPPSQEEMTKNQVSLTCLVKGFYPSDIAVEWESNGQPENNYKTTPPVLDSDGSFLLYSRLTVDKSRWQEGNVFSCSVMHEALHNHYTQKSLSLSLGK",fold-difference,[4],0.0019 fold
same,Kd,[2],25000 nM
"CH2-CH3 fragment of human IgG4 with K370Q (other, UniProt P01861-1 221-327, looked up, name in EU numbering, range 341-447; As m7, with the mutation; also called G4-K370Q; not shown: N-terminal 6 amino acid His tag) GQPREPQVYTLPPSQEEMTKNQVSLTCLVQGFYPSDIAVEWESNGQPENNYKTTPPVLDSDGSFFLYSRLTVDKSRWQEGNVFSCSVMHEALHNHYTQKSLSLSLGK",fold-difference,[4],4.3 fold
same,Kd,[2],11 nM
"CH2-CH3 fragment of human IgG1 with T350I (other, UniProt P01857-1 224-330, looked up, name in EU numbering, range 341-447; As m1, with the mutation; also called G1-T350I; not shown: N-terminal 6 amino acid His tag) GQPREPQVYILPPSRDELTKNQVSLTCLVKGFYPSDIAVEWESNGQPENNYKTTPPVLDSDGSFFLYSKLTVDKSRWQQGNVFSCSVMHEALHNHYTQKSLSLSPGK",fold-difference,[1],0.4 fold
same,Kd,[2],7 nM
"CH2-CH3 fragment of human IgG4 with F405A (other, UniProt P01861-1 221-327, looked up, name in EU numbering, range 341-447; As m7, with the mutation; also called G4-F405A; not shown: N-terminal 6 amino acid His tag) GQPREPQVYTLPPSQEEMTKNQVSLTCLVKGFYPSDIAVEWESNGQPENNYKTTPPVLDSDGSFALYSRLTVDKSRWQEGNVFSCSVMHEALHNHYTQKSLSLSLGK",fold-difference,[4],0.0025 fold
same,Kd,[2],19000 nM
"CH2-CH3 fragment of human IgG1 with T350I-K370T-F405L (other, UniProt P01857-1 224-330, looked up, name in EU numbering, range 341-447; also called G1-ITL; not shown: N-terminal 6 amino acid His tag) GQPREPQVYILPPSRDELTKNQVSLTCLVTGFYPSDIAVEWESNGQPENNYKTTPPVLDSDGSFLLYSKLTVDKSRWQQGNVFSCSVMHEALHNHYTQKSLSLSPGK",fold-difference,[1],0.003 fold
same,Kd,[2],1000 nM
same,Kd,[3],1200 nM
